What was measured:
[1] = molecular target: T1, human EGFR antigen (Sino Biologicals) (human, UniProt P00533 25-645); assay: ELISA on coated antigen
T1 construct: Bought soluble antigen; also called human antigen
Protocol: (§1) Antibody-antigen binding was measured by ELISA with coated antigens. Human antigens were obtained from Sino Biologicals. All other antigens were produced in-house by transient expression in CHO or HEK293 cells. Chimeric and humanized antibodies, as well as an isotype control antibody, were incubated with the coated antigens at different concentrations. After wash, bound antibodies were detected by HRP-(horse radish peroxidase)-conjugated secondary antibodies.

mouse HER2 antigen = molecular target: T2, mouse HER2 antigen (mouse, UniProt P70424 23-653, limits assumed); assay: ELISA on coated antigen
T2 construct: In-house antigen coated for ELISA; also called mouse antigen; murine HER2
T2 sequence (P70424 23-653 limits assumed): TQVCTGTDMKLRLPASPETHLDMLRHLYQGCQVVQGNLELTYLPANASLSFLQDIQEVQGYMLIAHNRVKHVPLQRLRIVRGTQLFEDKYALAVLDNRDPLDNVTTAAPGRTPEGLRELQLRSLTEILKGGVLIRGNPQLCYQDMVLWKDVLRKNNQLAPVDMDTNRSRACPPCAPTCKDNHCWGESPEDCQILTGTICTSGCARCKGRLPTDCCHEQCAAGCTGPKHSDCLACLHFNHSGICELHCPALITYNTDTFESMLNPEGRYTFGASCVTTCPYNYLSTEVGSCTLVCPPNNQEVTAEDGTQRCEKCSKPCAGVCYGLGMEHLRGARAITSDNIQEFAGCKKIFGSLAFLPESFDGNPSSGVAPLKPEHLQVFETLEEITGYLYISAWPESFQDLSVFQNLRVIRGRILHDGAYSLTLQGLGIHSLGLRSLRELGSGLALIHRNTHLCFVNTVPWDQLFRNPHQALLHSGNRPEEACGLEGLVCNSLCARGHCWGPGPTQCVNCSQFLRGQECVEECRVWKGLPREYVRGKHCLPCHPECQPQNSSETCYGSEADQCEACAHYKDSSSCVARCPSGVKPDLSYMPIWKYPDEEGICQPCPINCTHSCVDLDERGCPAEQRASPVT
Protocol: as §1

[2] = molecular target: T3, human HER3 antigen (Sino Biologicals) (human, UniProt P21860 20-643); assay: ELISA on coated antigen
T3 construct: Bought soluble antigen; also called human antigen
Protocol: as §1

mouse EGFR antigen = molecular target: T4, mouse EGFR antigen (mouse, UniProt Q01279 25-647, limits assumed); assay: ELISA on coated antigen
T4 construct: In-house antigen coated for ELISA; also called mouse antigen; murine EGFR
Protocol: as §1

cynomolgus EGFR antigen = molecular target: T5, cynomolgus EGFR antigen (cynomolgus monkey, UniProt A0A2K5WK39 25-645); assay: ELISA on coated antigen
T5 construct: In-house antigen; also called cynomolgus antigen
Protocol: as §1

mouse HER3 antigen = molecular target: T6, mouse HER3 antigen (mouse, UniProt Q61526 20-641, limits assumed); assay: ELISA on coated antigen
T6 construct: In-house antigen coated for ELISA; also called mouse antigen; murine HER3
T6 sequence (Q61526 20-641 limits assumed): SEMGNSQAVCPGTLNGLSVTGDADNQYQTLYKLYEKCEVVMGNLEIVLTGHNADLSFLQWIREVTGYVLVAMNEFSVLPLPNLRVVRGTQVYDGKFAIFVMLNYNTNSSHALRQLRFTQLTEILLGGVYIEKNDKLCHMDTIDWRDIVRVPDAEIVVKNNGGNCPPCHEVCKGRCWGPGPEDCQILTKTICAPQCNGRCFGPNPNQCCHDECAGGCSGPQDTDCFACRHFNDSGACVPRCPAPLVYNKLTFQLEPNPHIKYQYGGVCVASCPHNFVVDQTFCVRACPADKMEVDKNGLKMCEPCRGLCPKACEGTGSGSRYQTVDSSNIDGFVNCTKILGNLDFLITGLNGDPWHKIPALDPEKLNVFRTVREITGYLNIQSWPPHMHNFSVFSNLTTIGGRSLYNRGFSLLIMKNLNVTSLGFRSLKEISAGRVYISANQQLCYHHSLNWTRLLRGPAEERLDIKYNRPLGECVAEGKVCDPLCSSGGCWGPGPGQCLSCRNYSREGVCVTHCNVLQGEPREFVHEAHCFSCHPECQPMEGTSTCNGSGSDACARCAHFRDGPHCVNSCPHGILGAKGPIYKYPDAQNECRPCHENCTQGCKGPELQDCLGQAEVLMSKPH
Protocol: as §1

human HER4 antigen = molecular target: T7, human HER4 antigen (human, UniProt Q15303 26-649, limits assumed); assay: ELISA on coated antigen
T7 construct: Antigen coated for ELISA
T7 sequence (looked up): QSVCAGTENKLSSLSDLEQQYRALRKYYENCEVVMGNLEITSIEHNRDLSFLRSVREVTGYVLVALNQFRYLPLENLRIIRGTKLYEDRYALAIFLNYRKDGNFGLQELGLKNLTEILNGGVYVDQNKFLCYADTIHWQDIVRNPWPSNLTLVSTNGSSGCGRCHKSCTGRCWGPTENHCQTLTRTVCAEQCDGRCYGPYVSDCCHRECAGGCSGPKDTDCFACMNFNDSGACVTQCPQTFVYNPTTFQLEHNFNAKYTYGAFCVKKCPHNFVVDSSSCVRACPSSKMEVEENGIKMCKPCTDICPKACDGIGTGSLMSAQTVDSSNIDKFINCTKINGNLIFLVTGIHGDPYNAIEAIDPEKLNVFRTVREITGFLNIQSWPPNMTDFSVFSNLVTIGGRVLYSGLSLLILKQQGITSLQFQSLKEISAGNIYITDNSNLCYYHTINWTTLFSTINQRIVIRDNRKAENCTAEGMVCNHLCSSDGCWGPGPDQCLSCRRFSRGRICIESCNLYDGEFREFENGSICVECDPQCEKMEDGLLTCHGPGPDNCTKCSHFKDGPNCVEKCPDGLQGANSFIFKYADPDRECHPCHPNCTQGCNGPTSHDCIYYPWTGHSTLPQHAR
Protocol: as §1

cynomolgus HER3 antigen = molecular target: T8, cynomolgus HER3 antigen (cynomolgus monkey, UniProt G7PIG5 20-643); assay: ELISA on coated antigen
T8 construct: In-house antigen; also called cynomolgus antigen
T8 sequence (G7PIG5 entry or part of it): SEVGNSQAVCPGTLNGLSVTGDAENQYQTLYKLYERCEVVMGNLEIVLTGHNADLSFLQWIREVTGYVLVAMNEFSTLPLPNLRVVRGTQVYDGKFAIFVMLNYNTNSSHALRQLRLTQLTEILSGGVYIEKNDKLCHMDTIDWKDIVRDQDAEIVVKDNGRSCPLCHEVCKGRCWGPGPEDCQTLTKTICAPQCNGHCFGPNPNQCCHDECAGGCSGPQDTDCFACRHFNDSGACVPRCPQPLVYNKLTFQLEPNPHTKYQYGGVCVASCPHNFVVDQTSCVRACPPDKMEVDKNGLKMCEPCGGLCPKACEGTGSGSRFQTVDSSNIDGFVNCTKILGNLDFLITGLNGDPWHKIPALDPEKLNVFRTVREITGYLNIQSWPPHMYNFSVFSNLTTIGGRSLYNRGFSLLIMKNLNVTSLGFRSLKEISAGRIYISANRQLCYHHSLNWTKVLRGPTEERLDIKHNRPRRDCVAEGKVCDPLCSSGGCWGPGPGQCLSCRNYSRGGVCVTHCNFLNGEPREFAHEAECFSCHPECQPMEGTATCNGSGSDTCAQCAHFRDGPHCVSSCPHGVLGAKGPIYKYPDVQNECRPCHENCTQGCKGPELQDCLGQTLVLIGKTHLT
Protocol: as §1

murine HER4 antigen = molecular target: T9, murine HER4 antigen (mouse, UniProt Q61527 26-652, limits assumed); assay: ELISA on coated antigen
T9 construct: In-house antigen coated for ELISA; also called mouse HER4
T9 sequence (looked up): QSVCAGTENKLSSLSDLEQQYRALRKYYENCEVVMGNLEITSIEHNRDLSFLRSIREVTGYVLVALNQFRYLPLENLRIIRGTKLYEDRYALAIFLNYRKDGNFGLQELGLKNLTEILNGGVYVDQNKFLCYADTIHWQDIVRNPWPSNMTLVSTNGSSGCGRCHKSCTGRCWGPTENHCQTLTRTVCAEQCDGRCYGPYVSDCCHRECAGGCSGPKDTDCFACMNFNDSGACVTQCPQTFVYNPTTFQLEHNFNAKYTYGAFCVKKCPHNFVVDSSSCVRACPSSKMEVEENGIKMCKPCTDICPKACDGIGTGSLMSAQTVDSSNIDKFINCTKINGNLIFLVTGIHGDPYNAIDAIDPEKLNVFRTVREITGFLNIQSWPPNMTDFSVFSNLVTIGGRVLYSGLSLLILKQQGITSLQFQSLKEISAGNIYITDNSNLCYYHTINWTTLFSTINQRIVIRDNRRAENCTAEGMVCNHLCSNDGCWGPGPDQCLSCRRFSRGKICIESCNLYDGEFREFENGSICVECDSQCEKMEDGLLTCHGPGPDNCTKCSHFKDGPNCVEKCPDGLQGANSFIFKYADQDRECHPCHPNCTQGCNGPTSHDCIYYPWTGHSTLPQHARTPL
Protocol: as §1

[3] = molecular target: cynomolgus HER2 antigen (cynomolgus monkey); assay: SPR (ProteOn XPR36), IgG captured by anti-human Fc, soluble monovalent antigen, 1:1 fit

B1: humanized anti-HER2 antibody 11249 (antibody, V domains shown)
VH: QVQLVQSGAEVKKPGASVKVSCKASGYTFTSHWMHWVRQAPGQGLEWMGNINPSSGGTNYNEKFKSRVTMTVDTSTSTVYMELSSLRSEDTAVYYCARAYYDFSWFVYWGQGTLVTVSS
VL: DIQMTQSPSSLSASVGDRVTITCRSSQDISNYLNWYQQKPGKAPKLLMYISRLHSGVPSRFSGSGSGTDYTFTISSLQPEDIATYYCQQGNTLPLTFGGGTKVEIK
B1: no binding (tested: 40 nM antibody (negative: OD<0.1)) [1]; no binding (tested: 40 nM antibody (negative: OD<0.1)) (mouse HER2 antigen); no binding (tested: 40 nM antibody (negative: OD<0.1)) [2]. B1: no binding (tested: 40 nM antibody (negative: OD<0.1)) (mouse EGFR antigen); no binding (tested: 40 nM antibody (negative: OD<0.1)) (cynomolgus EGFR antigen); no binding (tested: 40 nM antibody (negative: OD<0.1)) (mouse HER3 antigen). B1: no binding (tested: 40 nM antibody (negative: OD<0.1)) (human HER4 antigen); no binding (tested: 40 nM antibody (negative: OD<0.1)) (cynomolgus HER3 antigen); no binding (tested: 40 nM antibody (negative: OD<0.1)) (murine HER4 antigen). The Kd [3] was 2.5 nM, the koff [3] was 0.00038 s⁻¹ and the kon [3] was 150000 M⁻¹ s⁻¹.
